The text below walks through data of article PMC12049912 (2025).

Test [1] concerns the target T1, p68 S551F (mp68; DDX5 S551F) peptide on H-2Kb (mouse).
T1 peptide: SNFVFAGI
Description: cytokine release.

Test [2] deals with T1, p68 S551F (mp68; DDX5 S551F) peptide on …. Description: multimer staining.

B1: 1D9 (TCR)
alpha TRAV1 TRAJ30 CDR3: CAVRSDTNAYKVIF
beta TRBV19 TRBJ2-7 CDR3: CASSKRLSSYEQYF
B1: in test [1], the binding result was “recognises”.

B2: T3-3 (TCR)
alpha TRAV13-4 TRAJ30 CDR3: CAMEHDTNAYKVIF
beta TRBV12-1 TRBJ2-1 CDR3: CASSLRGYAEQFF
Regarding B2, the binding result in test [2] is “no recognition”.

B3: T1-3 (TCR)
alpha TRAV19 TRAJ40 CDR3: CAAGGFNTGNYKYVF
beta TRBV19 TRBJ2-7 CDR3: CASSIRQGSGEQYF
Regarding B3, the binding result in test [2] is given as “no recognition”.

B4: T3-3/2 (TCR)
alpha TRAV19 TRAJ40 CDR3: CAAGGVNTGNYKYVF
beta TRBV12-1 TRBJ2-1 CDR3: CASSLRGYAEQFF
Regarding B4, in test [2], the binding result was “no recognition”.
